From the supplement of paper PMC10567573

B1: ZNF649 (parent)
chain: YQAGKPDALTKLEQGEPLWTLEDE

Variants of: B1
Assay: protein stability index of a GFP-peptide fusion (GPS, HEK-293T) (PSI 1-6); higher = more stable
Settings: c terminus: a fixed tail appended
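Also: lentivirally expressed fusions sorted by FACS into six bins by GFP to DsRed ratio, PSI derived from sequencing read proportions per bin multiplied by bin number.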

Protein stability index, by site and new letter:
K11: D 4.86, C 4.45, E 4.06, A 4.66
A8: L 3.56, K 4.85, P 4.27, N 4.49, H 4.04, V 3.51, R 4.65, Q 4.41, W 1.18, F 2.91, E 5.31, I 4.08, S 4.46, D 4.94, T 3.95, C 3.61, G 4.87, M 3.83
Y1: W 4.7, P 4.5, Q 5.46, L 4.51, R 5.16, M 4.75, S 5.54, K 5.51, T 5.57, N 5.22
L9: I 4.69, K 4.86, E 4.93, N 3.99, Q 4.67, M 3.61, S 4.9, Y 4.54, A 4.95, V 4.62, F 4.01, G 4.55, D 5.48, T 4.71, R 4.29, C 4.63, H 4.04, W 1.86, P 4.38
A3: P 4.36, R 3.66, L 4.26, I 4.51, V 4.42, E 4.65, K 4.75, F 3.64, N 4.71, Y 4.25, C 3.83, Q 4.75, H 4.14, W 2.2, M 4.1, T 4.54
Q2: N 4.22, F 4.6, E 5.66, C 3.87, T 5.05, H 3.08, R 5.15, V 2.53, I 3.29, K 4.58, M 4.63, P 4.8, G 4.38, Y 3.56, D 5.48, L 3.1, A 3.68, S 4.99
G4: K 4.18, E 4.38, Q 4.08, S 4.4, C 4.47, L 4.17, R 3.53, I 4.22, P 4.63, A 4.68, F 4.8, Y 3.59, T 3.97, N 4.92, H 4.58, D 5.05
P6: Q 4.15, A 3.88, G 4.99, Y 3.91, M 3.85, L 3.79, C 4.17, H 3.93, V 4.42, W 2.99, E 5.46, T 4.64, N 4.15, I 4.32, D 3.77, K 4.29, S 4.19, F 3.31
D7: Q 3.58, K 3.66, E 4.77, V 3.28, P 4.16, R 3.65, F 2.49, T 3.59, A 3.4, I 2.61, C 2.37, H 4.18, S 3.99, N 3.26, L 3.15, Y 2.06
T10: P 4.97, N 4.41, A 4.88, L 4.39, S 4.62, G 3.69, V 4.62, W 2.31, Y 4.58, M 4.22, R 3.97, Q 4.55, C 4.28, D 4.91, K 3.15, E 4.5, I 4.02
K5: F 2.76, N 4.84, R 3.31, E 4.59, L 4.05, M 4.38, P 5, A 4.48, S 4.48, Y 2.6, I 4.02, C 4.72, D 4.01, V 3.03, T 4.6
